The assay addresses T1, Aggregatibacter actinomycetemcomitans leukotoxin (LtxA) (Aggregatibacter actinomycetemcomitans …, UniProt P16462 1-1055).
T1 sequence: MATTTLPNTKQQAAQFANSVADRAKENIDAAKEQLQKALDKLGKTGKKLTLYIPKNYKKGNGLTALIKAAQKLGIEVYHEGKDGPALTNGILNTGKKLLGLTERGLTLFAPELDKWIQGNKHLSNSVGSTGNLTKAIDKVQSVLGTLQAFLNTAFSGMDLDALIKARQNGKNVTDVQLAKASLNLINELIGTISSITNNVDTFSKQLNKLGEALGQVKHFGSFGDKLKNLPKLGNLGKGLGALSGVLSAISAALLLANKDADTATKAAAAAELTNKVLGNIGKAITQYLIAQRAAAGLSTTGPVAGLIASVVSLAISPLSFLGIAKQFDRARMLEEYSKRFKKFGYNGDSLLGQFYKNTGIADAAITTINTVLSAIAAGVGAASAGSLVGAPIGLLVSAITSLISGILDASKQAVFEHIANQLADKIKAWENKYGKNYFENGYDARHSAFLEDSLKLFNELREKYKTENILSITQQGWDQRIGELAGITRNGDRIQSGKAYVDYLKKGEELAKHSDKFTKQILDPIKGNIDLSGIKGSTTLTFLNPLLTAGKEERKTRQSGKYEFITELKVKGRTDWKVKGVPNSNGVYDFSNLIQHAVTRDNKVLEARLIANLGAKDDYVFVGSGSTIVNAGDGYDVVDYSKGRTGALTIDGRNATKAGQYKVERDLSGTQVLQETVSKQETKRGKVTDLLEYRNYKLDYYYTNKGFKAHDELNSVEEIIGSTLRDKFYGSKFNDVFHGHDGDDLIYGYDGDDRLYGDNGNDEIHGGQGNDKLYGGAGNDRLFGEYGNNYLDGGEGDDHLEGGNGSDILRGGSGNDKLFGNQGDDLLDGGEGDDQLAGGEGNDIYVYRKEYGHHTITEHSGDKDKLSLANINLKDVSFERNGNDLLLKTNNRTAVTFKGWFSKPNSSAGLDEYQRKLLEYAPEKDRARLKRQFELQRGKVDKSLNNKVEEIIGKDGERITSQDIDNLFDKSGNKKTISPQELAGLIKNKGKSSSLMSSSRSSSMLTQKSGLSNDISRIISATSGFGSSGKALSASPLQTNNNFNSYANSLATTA
The assay is described as follows: SPR.

B1: αL cytoplasmic tail peptide (integrin αL, LFA-1 α subunit) (peptide)
peptide: CKVGFFKRNLKEKMEAGRGVPNGIPAEDSEQLASGQEAGDPGSLKPLHEKDSESGGGKD
Consider B1, for which the Ka came out at 6.9e+07 M⁻¹, binding was put at a Kd of 15 nM, the koff came to 0.00012 s⁻¹ and the kon was 8500 M⁻¹ s⁻¹.

Regarding CKALIHLSDLREYRRFEKEKLKSQWNN [β2N2 peptide (longer N-terminal part of the β2 cytoplasmic tail, with WNN)], the Ka stood at 1.1e+08 M⁻¹, binding was characterised by a dissociation constant (Kd) of 9.4 nM, the koff was found to be 0.00013 s⁻¹ and the kon stood at 14000 M⁻¹ s⁻¹.

CKALIHLSDLREYRRFEKEKLKSQWNNDNPLFKSATTTVMNPKFAES [β2 cytoplasmic tail peptide (integrin β2, LFA-1 β subunit)] yielded a Ka of 2.4e+08 M⁻¹, a Kd of 4.2 nM, a koff of 0.0001 s⁻¹ and a kon of 24000 M⁻¹ s⁻¹.

Turning to CKVGFFKRQYKEMMEEANGQIAPENGTQTPSPPSEK [αX cytoplasmic tail peptide (integrin αX)], the Ka worked out at 5.7e+06 M⁻¹, binding was put at a Kd of 180 nM, the koff was determined as 0.022 s⁻¹ and the kon amounted to 130000 M⁻¹ s⁻¹.

On to CLKSQWNNDNPLFKSATTTVMNPKFAES [β2C peptide (C-terminal part of the β2 cytoplasmic tail)], for which the Ka is 2e+07 M⁻¹, the Kd came to 51 nM, the koff was 0.00031 s⁻¹ and the kon was found to be 6100 M⁻¹ s⁻¹.

Molecule CKLGFFKRQYKDMMSEGGSPGAEPQ [αM cytoplasmic tail peptide (integrin αM)] returned a Ka of 2.5e+06 M⁻¹, a Kd of 400 nM, a koff of 0.011 s⁻¹ and a kon of 28000 M⁻¹ s⁻¹.

Take CKLLITIHDRKEFAKFEEERARAKWDTANNPLYKEATSTFTNITYRGT [β3 cytoplasmic tail peptide (integrin β3)]: the Ka stood at 4.4e+06 M⁻¹, the Kd is 230 nM, the koff came out at 0.0059 s⁻¹ and the kon was 26000 M⁻¹ s⁻¹.

The molecule CKVGFFKRNLKEKMEAGRGVPNGI [αLN peptide (N-terminal, membrane-proximal part of the αL cytoplasmic tail)] yielded a Ka of 6.6e+07 M⁻¹, a Kd of 16 nM, a koff of 0.00013 s⁻¹ and a kon of 8400 M⁻¹ s⁻¹.

In turn, CKALIHLSDLREYRRFEKEKLKSQ [β2N peptide (N-terminal part of the β2 cytoplasmic tail)] showed a Ka of 9.6e+06 M⁻¹, a Kd of 110 nM, a koff of 0.00063 s⁻¹ and a kon of 6100 M⁻¹ s⁻¹.

CGQEAGDPGSLKPLHEKDSESGGGKD [αLC peptide (C-terminal, membrane-distal part of the αL cytoplasmic tail)] came in with a Ka of 370000 M⁻¹.
